Entries after “also recorded” stand apart in the source; their conditions may differ.
Columns and labels:
human Kv1.3 [1] = target: T1, human Kv1.3 (Homo sapiens, UniProt P22001); format: cell-based
human Kv1.1 = target: T2, human Kv1.1 (Homo sapiens, UniProt Q09470); format: cell-based; settings: read-out: hKv1.1: IC50
T2 construct: expressed in transfected cells; host or cells: HEK293

[2] = tested on: T cell proliferation, human PBMCs; test: T cell proliferation (3H-thymidine incorporation) in anti-CD3/anti-CD28 stimulated human PBMCs; format: cell-based; settings: antibodies to CD3 and CD28
Source text: Inhibition of T cell proliferation following anti-CD3 and anti-CD28 antibody stimulation of PBMCs. PBMC's were previously isolated from normal human donor Leukophoresis packs, purified by density gradient centrifugation (Ficoll Hypaque), cryopreserved in CPZ Cryopreservation Medium Complete (INCELL, MCPZF-100 plus 10% DMSO final). PBMC's were thawed (95% viability), washed, and seeded at 2×10^5 cells per well in culture medium (RPMI medium 1640; GIBCO) supplemented with 10% fetal calf serum, 100 U/ml penicillin, […] streptomycin, 2 mM L-glutamine, 100 μM non-essential amino acids, and 20 μM 2-ME) in 96-well flat-bottom tissue culture plates. Cells were pre-incubated with either anti-human CD32 (FcyRII) blocking antibody (per manufacturers instructions EASY SEP Human Biotin Selection Kit #18553, StemCell Technologies Vancouver, BC) or Fc-L10-ShK (100 nM-0.001 nM final) for 45 min. Fc-L10-ShK (100 nM-0.001 nM final) was then added to the cells containing anti-human CD32 blocking antibody while medium was added to the cells containing Fc-L10-ShK. Both sets were incubated for an additional 45 min before stimulating for 48 hr with aCD3/aCD28 (0.2 ng/ml and 100 ng/ml, respectively). Final assay volume was 200 ul. […] Cells were then harvested onto glass fiber filters and radioactivity was measured in a B-scintillation counter.

CD40L on CD4+ T cells = format: cell-based, human
IL-2R on CD4+ T cells = format: cell-based, human
human Kv1.3 [3] = target: T1, human Kv1.3; test: Immunohistochemistry of peptibody binding to HEK 293 cells overexpressing human Kv1.3; design: expressed in transfected cells; settings: 5 μg/ml peptibody
Experimental: Immunohistochemistry analysis of Fc-L10-ShK[1-35] binding to HEK 293 cells overexpressing human Kv1.3. HEK 293 cells overexpressing human Kv1.3 (HEK Kv1.3) were obtained from BioFocus plc (Cambridge, UK) and maintained per manufacturer's recommendation. The parental HEK 293 cell line was used as a control. Cells were plated on Poly-D-Lysine 24 well plates (#35-4414; Becton-Dickinson, Bedford, Mass.) and allowed to grow to approximately 70% confluence. HEK KV1.3 were plated at 0.5×10e5 cells/well in 1 ml/well of medium. HEK 293 cells were plated at a density of 1.5×10e5 cells/well in 1 ml/well of medium. Before staining, cells were fixed with formalin (Sigma HT50-1-1 Formalin solution, diluted 1:1 with PBS/0.5% BSA before use) by removing cell growth medium, adding 0.2 ml/well formalin solution and incubating at room temperature for ten minutes. Cells were stained by incubating with 0.2 ml/well of 5 μg/ml Fc-L10-ShK[1-35] in PBS/BSA for 30′ at room temperature. Fc-L10-ShK[1-35] was aspirated and then the cells were washed one time with PBS/0.5% BSA. Detection antibody (Goat F(ab)2 anti-human IgG-phycoerythrin; Southern Biotech Associates, Birmingham, Ala.) was added to the wells at 5 μg/ml in PBS/0.5% BSA and incubated for 30′ at room temperature. Wash cells once with PBS/0.5% BSA and examine using confocal microscopy (LSM 510 Meta Confocal Microscope; Carl Zeiss AG, Germany). […]

human Kv1.3 [4] = target: T1, human Kv1.3; test: Whole cell immunoassay (ELISA) of binding to fixed HEK 293 cells overexpressing Kv1.3; design: expressed in transfected cells
Experimental: Our peptibody reagent can be a useful and convenient tool for monitoring Kv1.3 channel expression in patients and have utility in diagnostic applications. The procedure shown in FIG. 34A and FIG. 34B follows.
FIG. 34A. A whole cell immunoassay was performed to show binding of intact Fc-L10-ShK[1-35] to Kv1.3 transfected HEK 293 cells (BioFocus plc, Cambridge, UK). Parent HEK 293 cells or HEK Kv1.3 cells were plated at 3×10e4 cells/well in poly-D-Lysine coated ninety-six well plates (#35-4461; Becton-Dickinson, Bedford, Mass.). Cells were fixed with formalin (Sigma HT50-1-1 Formalin solution, diluted 1:1 with PBS/0.5% BSA before use) by removing cell growth medium, adding 0.2 ml/well formalin solution and incubating at room temperature for 25 minutes and then washing one time with 100 μl/well of PBS/0.5% BSA. Wells were blocked by addition of 0.3 ml/well of BSA blocker (50-61-00; KPL 10% BSA Diluent/Blocking Solution, diluted 1:1 with PBS; KPL, Gaithersburg, Md.) followed by incubation at room temperature, with shaking, for 3 hr. Plates were washed 2 times with 1×KP Wash Buffer (50-63-00; KPL). […] Absorbance was read at 450 nm on a Molecular Devices SpectroMax 340 (Sunnyvale, Calif.).
FIG. 34B. […] Absorbances were read at 405 nm after stopping reactions by addition of 0.1 ml/well of 1% SDS.

T1 sequence (P22001 whole entry): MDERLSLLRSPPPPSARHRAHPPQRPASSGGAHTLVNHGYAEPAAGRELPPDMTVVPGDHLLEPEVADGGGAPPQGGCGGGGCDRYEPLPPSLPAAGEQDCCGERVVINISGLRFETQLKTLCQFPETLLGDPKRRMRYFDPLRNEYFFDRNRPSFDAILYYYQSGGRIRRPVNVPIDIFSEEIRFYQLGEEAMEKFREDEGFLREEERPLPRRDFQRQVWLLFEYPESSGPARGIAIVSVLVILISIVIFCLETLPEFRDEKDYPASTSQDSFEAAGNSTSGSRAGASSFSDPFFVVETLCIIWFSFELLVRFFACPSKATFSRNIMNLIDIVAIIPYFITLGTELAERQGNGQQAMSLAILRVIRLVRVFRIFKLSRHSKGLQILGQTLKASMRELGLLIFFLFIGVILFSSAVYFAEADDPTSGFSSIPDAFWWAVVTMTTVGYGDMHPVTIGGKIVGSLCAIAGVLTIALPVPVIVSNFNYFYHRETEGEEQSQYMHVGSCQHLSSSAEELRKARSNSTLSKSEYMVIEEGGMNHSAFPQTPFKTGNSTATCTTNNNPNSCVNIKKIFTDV
T2 sequence (Q09470 whole entry): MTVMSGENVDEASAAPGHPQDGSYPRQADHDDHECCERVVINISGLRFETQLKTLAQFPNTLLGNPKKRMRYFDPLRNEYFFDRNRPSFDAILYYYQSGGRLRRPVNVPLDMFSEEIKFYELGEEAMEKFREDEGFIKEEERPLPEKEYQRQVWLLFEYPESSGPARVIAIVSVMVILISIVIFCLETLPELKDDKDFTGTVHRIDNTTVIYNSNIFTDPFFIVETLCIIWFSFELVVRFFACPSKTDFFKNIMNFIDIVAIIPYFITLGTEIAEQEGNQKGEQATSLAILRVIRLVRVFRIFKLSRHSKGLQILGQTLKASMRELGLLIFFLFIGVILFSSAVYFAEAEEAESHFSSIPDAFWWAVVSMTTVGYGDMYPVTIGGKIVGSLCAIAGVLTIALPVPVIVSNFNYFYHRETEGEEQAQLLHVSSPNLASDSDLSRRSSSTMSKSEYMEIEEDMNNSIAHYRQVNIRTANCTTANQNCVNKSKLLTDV

Fc-L10-OSK1[E16K,K20D]
fold less potent than the synthetic OSK1 toxin peptide (human Kv1.3 [1]): approximately 6 fold
IC50 (human Kv1.1): > 100 nM

Fc-L10-ShK[1-35]: Fc region of human IgG1 fused in-frame to a 10 amino acid linker and the Kv1.3 inhibitor peptide ShK[1-35]; peptibody
inhibition of T cell proliferation (in words) [2]: inhibits T cell proliferation; also recorded: blocked T cell proliferation; also recorded: potently inhibits proliferation of T cells in a dose-dependent manner
block of thapsigargin-induced upregulation of CD40L on T cells (in words) (CD40L on CD4+ T cells): suppressed
block of thapsigargin-induced upregulation of the IL-2R on T cells (in words) (IL-2R on CD4+ T cells): suppressed
staining of Kv1.3-transfected HEK 293 cells (in words) (human Kv1.3 [3]): stains HEK 293 cells stably transfected with human Kv1.3
binding to fixed HEK 293 cells overexpressing Kv1.3 (in words) (human Kv1.3 [4]): dose-dependent increase in response; also recorded: high affinity binding to its target

— patent US7910102B2 (priority 2006, dated 2011)
